Data as given in patent US20240343803A1 (SHANDONG SIMCERE BIOPHARMACEUTICAL, published 2024).

T1: human TIGIT ECD-mFc (fusion protein of extracellular domain of human TIGIT and mouse IgG2a Fc fragment) (human)
T1 chain: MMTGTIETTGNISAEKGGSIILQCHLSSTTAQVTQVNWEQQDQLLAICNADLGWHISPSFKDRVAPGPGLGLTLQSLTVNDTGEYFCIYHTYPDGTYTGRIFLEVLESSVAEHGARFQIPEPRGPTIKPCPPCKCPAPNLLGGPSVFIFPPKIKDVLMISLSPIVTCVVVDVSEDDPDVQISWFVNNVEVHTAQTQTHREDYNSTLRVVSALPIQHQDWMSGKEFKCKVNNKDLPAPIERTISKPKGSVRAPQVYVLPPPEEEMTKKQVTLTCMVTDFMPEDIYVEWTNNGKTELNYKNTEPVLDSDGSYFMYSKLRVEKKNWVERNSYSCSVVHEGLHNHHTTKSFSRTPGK

T2: full-length human TIGIT on CHO-K1 cells (CHO-K1 human TIGIT) (human, UniProt Q495A1 22-244)
T2 construct: NCBI XP_024309156.1; entry includes the signal peptide; also called high expression strain 1D2; medium expression strain 2D10
T2 sequence: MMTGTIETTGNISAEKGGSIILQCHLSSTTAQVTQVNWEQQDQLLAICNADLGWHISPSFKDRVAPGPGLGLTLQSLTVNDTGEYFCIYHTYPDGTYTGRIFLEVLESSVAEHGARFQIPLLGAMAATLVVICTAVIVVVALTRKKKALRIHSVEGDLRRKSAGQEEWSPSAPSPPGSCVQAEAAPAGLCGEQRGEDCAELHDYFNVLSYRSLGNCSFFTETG

T3: human PVRIG-his (AcroBiosystems, Cat NO. PVG-H52H4) (human, UniProt Q6DKI7 41-171, limits assumed)
T3 construct: treated as the same protein; also called human PVRIG-His protein; Human PVRIG-His, Acro C227P1-9ARF1-T4
T3 sequence (looked up): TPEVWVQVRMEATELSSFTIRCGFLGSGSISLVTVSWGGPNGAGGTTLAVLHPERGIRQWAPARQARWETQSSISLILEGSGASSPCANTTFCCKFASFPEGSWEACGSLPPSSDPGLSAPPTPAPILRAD


Tests used:
[1] = molecular target: T1, human TIGIT ECD-mFc (fusion protein of …); experiment: ELISA
Procedure: (§1) After discarding the coating solution, the plate was added with 5% skim milk powder (Sangon Biotech, CAT #A600669-0250)-PBS, 250 μL/well, and incubated at 37° C. for 2-4 hours. […] The enzyme-labeled plate was then washed with 0.05% Tween 20-PBS for 3 times on the Microplate Washer, added with tested antibodies diluted to 13 nM with 1% BSA (diluted by 3-fold serial dilution for 12 concentration points), 50 μL/well, and incubated at 37° C. for 1.5-2 hours. The plate was washed with 0.05% Tween 20-PBS for 3 times on the Microplate Washer, then added with HRP enzyme-labeled antibodies (Merck, CAT #AP113P) diluted with 1% BSA (Sangon Biotech, CAT #A500023-0100)-PBS at a dilution ratio of 1:5000, 50 μL/well, and incubated at 37° C. for 1 hour. After washing 3 times with 0.05% Tween 20-PBS on the Microplate Washer, the plate was added with TMB chromogenic solution (KPL, CAT #52-00-03), 50 μL/well, and incubated at room temperature for 7-10 minutes. 1M HCL, 50 μL/well, was then added into the plate to terminate the reaction, and the OD450 nm was read by a microplate reader (Biotek, Powerwave HT). […] (b) The binding activity of anti-TIGIT chimeric antibodies to CHO-K1 human TIGIT (cells with high, medium and low expression levels) and CHO-KI cynomolgus monkey TIGIT detected by FACS.

[2] = molecular target: T4, cynomolgus monkey TIGIT ECD-mFc (extracellular domain of cynomolgus monkey TIGIT and mouse IgG2a Fc fragment) (cynomolgus monkey); experiment: ELISA
T4 construct: entry includes the signal peptide, limits not readable here
Procedure: as §1

[3] = molecular target: T2, full-length human TIGIT on CHO-K1 cells …; experiment: FACS, medium expression strain
Procedure: The collected cells were washed once with PBS (Hyclone, CAT #SH30256), resuspended to 2×10⁵/50 μL with 1% BSA-PBS. The antibodies were diluted to 80 nM with 1% BSA-PBS (diluted by 3-fold serial dilution for 12 concentration points). The 50 μL cells were then mixed with 50 μL diluted antibodies, and then incubated at 4° C. for 60 minutes. […] After washing twice with PBS, the cell samples were resuspended with 1% BSA-PBS, 100 μL/well and then analyzed by flow cytometry (BD, Canto II). […] [0298] (c) The effect of anti-TIGIT chimeric antibodies blocking the interaction between Bio-CD155-His and CHO-K1 human TIGIT high expression cell strains detected by FACS

[4] = molecular target: T5, full-length cynomolgus monkey TIGIT on CHO-K1 cells (CHO-K1 cynomolgus monkey TIGIT) (cynomolgus monkey); experiment: FACS, CHO-K1 cynomolgus monkey TIGIT cells
T5 construct: NCBI XP_015300911.1; also called cynomolgus monkey TIGIT cells
Procedure: (§2) The collected cells were washed once with PBS (Hyclone, Cat NO. SH30256), resuspended to 2×10⁵/50 μL with 1% BSA-PBS. The antibodies were diluted to 80 nM with 1% BSA-PBS (diluted by 3-fold serial dilution for 12 concentration points). The 50 μL cells were then mixed with 50 μL diluted antibodies, and then incubated at 4° C. for 60 minutes. […] After washing twice with PBS, the cell samples were resuspended with 1% BSA-PBS, 100 μL/well and then analyzed by flow cytometry (BD, Canto II).

[5] = molecular target: T2, full-length human TIGIT on CHO-K1 cells …; experiment: FACS, CHO-K1 human TIGIT medium expression strain
Procedure: as §2

[6] = molecular target: T3, human PVRIG-his (AcroBiosystems, Cat …); experiment: ELISA, coated human PVRIG-his

T5 sequence (chain, as listed by the source limits assumed): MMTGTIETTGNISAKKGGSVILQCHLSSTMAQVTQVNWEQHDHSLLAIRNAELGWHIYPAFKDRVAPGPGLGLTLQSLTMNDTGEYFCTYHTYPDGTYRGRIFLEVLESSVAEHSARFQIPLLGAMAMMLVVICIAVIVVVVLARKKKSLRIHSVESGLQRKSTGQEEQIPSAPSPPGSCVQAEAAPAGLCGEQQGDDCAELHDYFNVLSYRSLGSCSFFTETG

| EC50 [1] [nM] | EC50 [2] [nM] | EC50 [3] [nM] | EC50 (read off the curve) [4] [nM] | EC50 (read off the curve) [5] [nM] | EC50 (read off the curve) [6] [nM] | Binder |
| --- | --- | --- | --- | --- | --- | --- |
| 0.0151 | 0.0158 | 0.616 | ~1 | ~0.4 |  | RG6058-hIgG1 (antibody, V domains shown, human IgG1 format by its name; also called Roche RG6058; control antibody RG6058) VH: EVQLQQSGPGLVKPSQTLSLTCAISGDSVSSNSAAWNWIRQSPSRGLEWLGKTYYRFKWYSDYAVSVKGRITINPDTSKNQFSLQLNSVTPEDTAVFYCTRESTTYDLLAGPFDYWGQGTLVTVSS VL: not shown |
|  |  |  |  |  | ~0.05 | SRF813-hIgG1 (antibody, V domains shown, human IgG1 format by its name) VH: QVQLVQSGAEVKKPGSSVKVSCKASGGTFSSAAISWVRQAPGQGLEWMGNIIPIVGIANYAQKFQGRVTITADESTSTAYMELSSLRSEDTAVYYCARDTGRGYTRHFWFDPWGQGTLVTVSS VL: DIQMTQSPSSLSASVGDRVTITCRASQSISSYLNWYQQKPGKAPKLLIYAASSLQSGVPSRFSGSGSGTDFTLTISSLQPEDFATYYCQQSDILYTFGGGTKVEIK |
